The record followed here is article PMC5611513 (Frontiers in Cellular and Infection Microbiology, 2017).

The test deals with T1, TplEi (Pseudomonas aeruginosa, UniProt Q9I3K3).
T1 sequence: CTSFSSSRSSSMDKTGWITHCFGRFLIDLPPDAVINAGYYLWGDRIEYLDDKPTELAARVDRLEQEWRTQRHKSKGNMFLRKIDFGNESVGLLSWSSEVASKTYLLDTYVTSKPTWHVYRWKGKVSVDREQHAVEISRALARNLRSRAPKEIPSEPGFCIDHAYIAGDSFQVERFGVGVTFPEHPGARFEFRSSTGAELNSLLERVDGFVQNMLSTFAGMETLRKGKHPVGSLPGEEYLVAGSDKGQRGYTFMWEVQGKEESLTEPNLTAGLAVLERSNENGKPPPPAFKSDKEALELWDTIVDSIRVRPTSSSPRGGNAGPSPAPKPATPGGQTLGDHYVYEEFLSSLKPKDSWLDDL
Description: ITC. The following applies: both partners purified.

B1: A peptides (“L” peptide, TplE 82-108 plus EQVEVDD) (peptide)
peptide: Ac-DDLFASIGALWTWAWRGPKARQELLKAEQVEVDD-NH2
notes: source: synthetic peptide (solid-phase FMOC, Scilight Biotechnology LLC, HPLC purified)
Regarding B1, the Kd is approximately 125 nM.

B2: B peptides (“L” peptide, TplE 82-108 plus EQ) (peptide)
peptide: Ac-DDLFASIGALWTWAWRGPKARQELLKAEQ-NH2
notes: as for B1
Regarding B2, the Kd was 478 nM.
